# In patent US20110105394A1 (Novo Nordisk, published 2011):
# *1 amine or outer side, *2 acyl side, *3 side chain or, on linkers, in order; H or OH if unused. Bridges are numbered along the chain shown (N, C = ends). The star is where a group is joined. X1 = (S)‑4‑Carboxy‑4‑(17-carboxyheptadecanoylamino)butyryl, O=C(O)CCCCCCCCCCCCCCCCC(=O)N[C@@H](CCC(=O)*)C(=O)O; C20 diacid = O=C(O)CCCCCCCCCCCCCCCCCCC(=O)*; C18 diacid = O=C(O)CCCCCCCCCCCCCCCCC(=O)*; γGlu = O=C(O)[C@H](CCC(=O)[*:2])N[*:1]; AEEA = NCCOCCOCC(=O)O
# T1: Amylin 3(a) receptor (human calcitonin receptor (CTa) with RAMP-3) (human, UniProt P30988 25-474; O60896 24-148, limits assumed)
# T1 sequence (looked up) 1: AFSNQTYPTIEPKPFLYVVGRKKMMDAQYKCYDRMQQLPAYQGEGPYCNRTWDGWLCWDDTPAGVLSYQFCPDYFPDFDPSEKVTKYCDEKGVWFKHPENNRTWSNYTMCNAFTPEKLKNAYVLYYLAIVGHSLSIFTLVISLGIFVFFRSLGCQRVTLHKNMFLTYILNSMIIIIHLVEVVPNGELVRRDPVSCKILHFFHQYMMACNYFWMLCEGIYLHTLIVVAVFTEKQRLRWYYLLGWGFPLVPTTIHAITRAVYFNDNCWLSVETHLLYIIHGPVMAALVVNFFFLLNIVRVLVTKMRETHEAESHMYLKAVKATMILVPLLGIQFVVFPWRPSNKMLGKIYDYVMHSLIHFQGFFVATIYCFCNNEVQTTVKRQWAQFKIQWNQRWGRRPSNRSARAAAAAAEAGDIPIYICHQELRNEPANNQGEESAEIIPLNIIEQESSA
# T1 sequence (looked up) 2: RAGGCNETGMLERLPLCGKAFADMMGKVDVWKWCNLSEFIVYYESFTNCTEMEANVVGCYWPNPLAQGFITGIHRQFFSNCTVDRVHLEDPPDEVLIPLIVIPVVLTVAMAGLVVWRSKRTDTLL
# Molecular target: T1, Amylin 3(a) receptor (human calcitonin …)
# Assay: cell-based or functional assay
row,Binder,Potency Luciferase
1,"{5‑carboxypentanoyl-γGlu}-HHHCNTATCATQRLANFLHHSSNNFGPILPPTNVGSNTY-NH2 (disulfide 4-9) [N-alpha-[(S)-4-Carboxy-4-(5-carboxypentanoylamino)butyryl]-His-His-[His1,His17]-pramlintide]",40 pM
2,{C18 diacid-γGlu-AEEA-AEEA}-CNTATCATQRLANFLHHSSNNFGPILPPTNVGSNTY-NH2 (disulfide 1-6),40 pM
3,{C20 diacid-γGlu-AEEA}-HHRCNTATCATQRLANFLRHSSNNFGPILPPTNVGSNTY-NH2 (disulfide 4-9; SMILES CC[C@H](C)[C@H](NC(=O)[C@@H]1CCCN1C(=O)CNC(=O)[C@H](Cc1ccccc1)NC(=O)[C@H](CC(N)=O)NC(=O)[C@H](CC(N)=O)NC(=O)[C@H](CO)NC(=O)[C@H](CO)NC(=O)[C@H](Cc1c[nH]cn1)NC(=O)[C@H](CCCNC(=N)N)NC(=O)[C@H](CC(C)C)NC(=O)[C@H](Cc1ccccc1)NC(=O)[C@H](CC(N)=O)NC(=O)[C@H](C)NC(=O)[C@H](CC(C)C)NC(=O)[C@H](CCCNC(=N)N)NC(=O)[C@H](CCC(N)=O)NC(=O)[C@@H](NC(=O)[C@H](C)NC(=O)[C@@H]1CSSC[C@H](NC(=O)[C@H](CCCNC(=N)N)NC(=O)[C@H](Cc2c[nH]cn2)NC(=O)[C@H](Cc2c[nH]cn2)NC(=O)COCCOCCNC(=O)CC[C@H](NC(=O)CCCCCCCCCCCCCCCCCCC(=O)O)C(=O)O)C(=O)N[C@@H](CC(N)=O)C(=O)N[C@@H]([C@@H](C)O)C(=O)N[C@@H](C)C(=O)N[C@@H]([C@@H](C)O)C(=O)N1)[C@@H](C)O)C(=O)N[C@@H](CC(C)C)C(=O)N1CCC[C@H]1C(=O)N1CCC[C@H]1C(=O)N[C@H](C(=O)N[C@@H](CC(N)=O)C(=O)N[C@H](C(=O)NCC(=O)N[C@@H](CO)C(=O)N[C@@H](CC(N)=O)C(=O)N[C@H](C(=O)N[C@@H](Cc1ccc(O)cc1)C(N)=O)[C@@H](C)O)C(C)C)[C@@H](C)O),300 pM
4,{C20 diacid-γGlu-AEEA}-HHRCNTATCATQRLANFLHHSSNNFGPILPPTNVGSNTY-NH2 (disulfide 4-9; SMILES CC[C@H](C)[C@H](NC(=O)[C@@H]1CCCN1C(=O)CNC(=O)[C@H](Cc1ccccc1)NC(=O)[C@H](CC(N)=O)NC(=O)[C@H](CC(N)=O)NC(=O)[C@H](CO)NC(=O)[C@H](CO)NC(=O)[C@H](Cc1c[nH]cn1)NC(=O)[C@H](Cc1c[nH]cn1)NC(=O)[C@H](CC(C)C)NC(=O)[C@H](Cc1ccccc1)NC(=O)[C@H](CC(N)=O)NC(=O)[C@H](C)NC(=O)[C@H](CC(C)C)NC(=O)[C@H](CCCNC(=N)N)NC(=O)[C@H](CCC(N)=O)NC(=O)[C@@H](NC(=O)[C@H](C)NC(=O)[C@@H]1CSSC[C@H](NC(=O)[C@H](CCCNC(=N)N)NC(=O)[C@H](Cc2c[nH]cn2)NC(=O)[C@H](Cc2c[nH]cn2)NC(=O)COCCOCCNC(=O)CC[C@H](NC(=O)CCCCCCCCCCCCCCCCCCC(=O)O)C(=O)O)C(=O)N[C@@H](CC(N)=O)C(=O)N[C@@H]([C@@H](C)O)C(=O)N[C@@H](C)C(=O)N[C@@H]([C@@H](C)O)C(=O)N1)[C@@H](C)O)C(=O)N[C@@H](CC(C)C)C(=O)N1CCC[C@H]1C(=O)N1CCC[C@H]1C(=O)N[C@H](C(=O)N[C@@H](CC(N)=O)C(=O)N[C@H](C(=O)NCC(=O)N[C@@H](CO)C(=O)N[C@@H](CC(N)=O)C(=O)N[C@H](C(=O)N[C@@H](Cc1ccc(O)cc1)C(N)=O)[C@@H](C)O)C(C)C)[C@@H](C)O),90 pM
5,"{C20 diacid-γGlu}-RCNTATCATQRLANFLHHSSNNFGPILPPTNVGSNTY-NH2 (disulfide 2-7; SMILES CC[C@H](C)[C@H](NC(=O)[C@@H]1CCCN1C(=O)CNC(=O)[C@H](Cc1ccccc1)NC(=O)[C@H](CC(N)=O)NC(=O)[C@H](CC(N)=O)NC(=O)[C@H](CO)NC(=O)[C@H](CO)NC(=O)[C@H](Cc1c[nH]cn1)NC(=O)[C@H](Cc1c[nH]cn1)NC(=O)[C@H](CC(C)C)NC(=O)[C@H](Cc1ccccc1)NC(=O)[C@H](CC(N)=O)NC(=O)[C@H](C)NC(=O)[C@H](CC(C)C)NC(=O)[C@H](CCCNC(=N)N)NC(=O)[C@H](CCC(N)=O)NC(=O)[C@@H](NC(=O)[C@H](C)NC(=O)[C@@H]1CSSC[C@H](NC(=O)[C@H](CCCNC(=N)N)NC(=O)CC[C@H](NC(=O)CCCCCCCCCCCCCCCCCCC(=O)O)C(=O)O)C(=O)N[C@@H](CC(N)=O)C(=O)N[C@@H]([C@@H](C)O)C(=O)N[C@@H](C)C(=O)N[C@@H]([C@@H](C)O)C(=O)N1)[C@@H](C)O)C(=O)N[C@@H](CC(C)C)C(=O)N1CCC[C@H]1C(=O)N1CCC[C@H]1C(=O)N[C@H](C(=O)N[C@@H](CC(N)=O)C(=O)N[C@H](C(=O)NCC(=O)N[C@@H](CO)C(=O)N[C@@H](CC(N)=O)C(=O)N[C@H](C(=O)N[C@@H](Cc1ccc(O)cc1)C(N)=O)[C@@H](C)O)C(C)C)[C@@H](C)O) [N-alpha-[(S)-4-Carboxy-4-(19-carboxynonadecanoylamino)butyryl]-[Arg1,His17]-pramlintide]",300 pM
6,"X1-HHHCNTATCATQRLANFLHHSSNNFGPILPPTNVGSNTY-NH2 (disulfide 4-9; SMILES CC[C@H](C)[C@H](NC(=O)[C@@H]1CCCN1C(=O)CNC(=O)[C@H](Cc1ccccc1)NC(=O)[C@H](CC(N)=O)NC(=O)[C@H](CC(N)=O)NC(=O)[C@H](CO)NC(=O)[C@H](CO)NC(=O)[C@H](Cc1c[nH]cn1)NC(=O)[C@H](Cc1c[nH]cn1)NC(=O)[C@H](CC(C)C)NC(=O)[C@H](Cc1ccccc1)NC(=O)[C@H](CC(N)=O)NC(=O)[C@H](C)NC(=O)[C@H](CC(C)C)NC(=O)[C@H](CCCNC(=N)N)NC(=O)[C@H](CCC(N)=O)NC(=O)[C@@H](NC(=O)[C@H](C)NC(=O)[C@@H]1CSSC[C@H](NC(=O)[C@H](Cc2c[nH]cn2)NC(=O)[C@H](Cc2c[nH]cn2)NC(=O)[C@H](Cc2c[nH]cn2)NC(=O)CC[C@H](NC(=O)CCCCCCCCCCCCCCCCC(=O)O)C(=O)O)C(=O)N[C@@H](CC(N)=O)C(=O)N[C@@H]([C@@H](C)O)C(=O)N[C@@H](C)C(=O)N[C@@H]([C@@H](C)O)C(=O)N1)[C@@H](C)O)C(=O)N[C@@H](CC(C)C)C(=O)N1CCC[C@H]1C(=O)N1CCC[C@H]1C(=O)N[C@H](C(=O)N[C@@H](CC(N)=O)C(=O)N[C@H](C(=O)NCC(=O)N[C@@H](CO)C(=O)N[C@@H](CC(N)=O)C(=O)N[C@H](C(=O)N[C@@H](Cc1ccc(O)cc1)C(N)=O)[C@@H](C)O)C(C)C)[C@@H](C)O) [N-alpha-[(S)-4-Carboxy-4-(17-carboxyheptadecanoylamino)butyryl]-His-His-[His1,His17]-pramlintide]",50 pM
7,"{C20 diacid-γGlu}-CNTATCATQRLANFLHHSSNNFGPILPPTDVGSNTY-NH2 (disulfide 1-6; SMILES CC[C@H](C)[C@H](NC(=O)[C@@H]1CCCN1C(=O)CNC(=O)[C@H](Cc1ccccc1)NC(=O)[C@H](CC(N)=O)NC(=O)[C@H](CC(N)=O)NC(=O)[C@H](CO)NC(=O)[C@H](CO)NC(=O)[C@H](Cc1c[nH]cn1)NC(=O)[C@H](Cc1c[nH]cn1)NC(=O)[C@H](CC(C)C)NC(=O)[C@H](Cc1ccccc1)NC(=O)[C@H](CC(N)=O)NC(=O)[C@H](C)NC(=O)[C@H](CC(C)C)NC(=O)[C@H](CCCNC(=N)N)NC(=O)[C@H](CCC(N)=O)NC(=O)[C@@H](NC(=O)[C@H](C)NC(=O)[C@@H]1CSSC[C@H](NC(=O)CC[C@H](NC(=O)CCCCCCCCCCCCCCCCCCC(=O)O)C(=O)O)C(=O)N[C@@H](CC(N)=O)C(=O)N[C@@H]([C@@H](C)O)C(=O)N[C@@H](C)C(=O)N[C@@H]([C@@H](C)O)C(=O)N1)[C@@H](C)O)C(=O)N[C@@H](CC(C)C)C(=O)N1CCC[C@H]1C(=O)N1CCC[C@H]1C(=O)N[C@H](C(=O)N[C@@H](CC(=O)O)C(=O)N[C@H](C(=O)NCC(=O)N[C@@H](CO)C(=O)N[C@@H](CC(N)=O)C(=O)N[C@H](C(=O)N[C@@H](Cc1ccc(O)cc1)C(N)=O)[C@@H](C)O)C(C)C)[C@@H](C)O) [N-alpha-[(S)-4-Carboxy-4-(19-carboxynonadecanoylamino)butyryl]-[His17,Asp31]-pramlintide (2-37)]",60 pM
8,{C20 diacid-γGlu-AEEA}-HHRCNTATCATQRLANFLHHSSQNFGPILPPTNVGSNTY-NH2 (disulfide 4-9; SMILES CC[C@H](C)[C@H](NC(=O)[C@@H]1CCCN1C(=O)CNC(=O)[C@H](Cc1ccccc1)NC(=O)[C@H](CC(N)=O)NC(=O)[C@H](CCC(N)=O)NC(=O)[C@H](CO)NC(=O)[C@H](CO)NC(=O)[C@H](Cc1c[nH]cn1)NC(=O)[C@H](Cc1c[nH]cn1)NC(=O)[C@H](CC(C)C)NC(=O)[C@H](Cc1ccccc1)NC(=O)[C@H](CC(N)=O)NC(=O)[C@H](C)NC(=O)[C@H](CC(C)C)NC(=O)[C@H](CCCNC(=N)N)NC(=O)[C@H](CCC(N)=O)NC(=O)[C@@H](NC(=O)[C@H](C)NC(=O)[C@@H]1CSSC[C@H](NC(=O)[C@H](CCCNC(=N)N)NC(=O)[C@H](Cc2c[nH]cn2)NC(=O)[C@H](Cc2c[nH]cn2)NC(=O)COCCOCCNC(=O)CC[C@H](NC(=O)CCCCCCCCCCCCCCCCCCC(=O)O)C(=O)O)C(=O)N[C@@H](CC(N)=O)C(=O)N[C@@H]([C@@H](C)O)C(=O)N[C@@H](C)C(=O)N[C@@H]([C@@H](C)O)C(=O)N1)[C@@H](C)O)C(=O)N[C@@H](CC(C)C)C(=O)N1CCC[C@H]1C(=O)N1CCC[C@H]1C(=O)N[C@H](C(=O)N[C@@H](CC(N)=O)C(=O)N[C@H](C(=O)NCC(=O)N[C@@H](CO)C(=O)N[C@@H](CC(N)=O)C(=O)N[C@H](C(=O)N[C@@H](Cc1ccc(O)cc1)C(N)=O)[C@@H](C)O)C(C)C)[C@@H](C)O),60 pM
